# Source: paper PMC5379953 (The Journal of Cell Biology, 2017)
# Positions count from the first letter of the chain named. Names and notes keep the numbering of the source.
# B1: human BICD2^2–422::Strep-tag II (domain or fragment, UniProt Q8TD16 2-422, looked up)
# chain: SAPSEEEEYARLVMEAQPEWLRAEVKRLSHELAETTREKIQAAEYGLAVLEEKHQLKLQFEELEVDYEAIRSEMEQLKEAFGQAHTNHKKVAADGESREESLIQESASKEQYYVRKVLELQTELKQLRNVLTNTQSENERLASVAQELKEINQNVEIQRGRLRDDIKEYKFREARLLQDYSELEEENISLQKQVSVLRQNQVEFEGLKHEIKRLEEETEYLNSQLEDAIRLKEISERQLEEALETLKTEREQKNSLRKELSHYMSINDSFYTSHLHVSLDGLKFSDDAAEPNNDAEALVNGFEHGGLAKLPLDNKTSTPKKEGLAPPSPSLVSDLLSELNISEIQKLKQQLMQMEREKAGLLATLQDTQKQLEHTRGSLSEQQEKVTRLTENLSALRRLQASKERQTALDNEKDRDSHEDG
# B2: human Spindly^2–359::Strep-tag II (N-terminal coiled-coil region) (domain or fragment, UniProt Q96EA4 2-359, looked up)
# chain: EADIITNLRCRLKEAEEERLKAAQYGLQLVESQNELQNQLDKCRNEMMTMTESYEQEKYTLQREVELKSRMLESLSCECEAIKQQQKMHLEKLEEQLSRSHGQEVNELKTKIEKLKVELDEARLSEKQLKHQVDHQKELLSCKSEELRVMSERVQESMSSEMLALQIELTEMESMKTTLKEEVNELQYRQEQLELLITNLMRQVDRLKEEKEEREKEAVSYYNALEKARVANQDLQVQLDQALQQALDPNSKGNSLFAEVEDRRAAMERQLISMKVKYQSLKKQNVFNREQMQRMKLQIATLLQMKGSQTEFEQQERLLAMLEQKNGEIKHLLGEIRNLEKFKNLYDSMESKPSVDSG
# B3: GST::LIC1::6×His C-terminal region (residues 388–523) (domain or fragment, human, UniProt Q9Y6G9 388-523, looked up)
# chain: PTAAGRPVDASPRVPGGSPRTPNRSVSSNVASVSPIPAGSKKIDPNMKAGATSEGVLANFFNSLLSKKTGSPGGPGVSGGSPAGGAGGGSSGLPPSTKKSGQKPVLDVHAELDRITRKPVTVSPTTPTSPTEGEAS
# B4: human Spindly^2–359 F258A::Strep-tag II (domain or fragment, UniProt Q96EA4 2-359, looked up)
# chain: B2 chain with F257A
# Key:
# [1] = target: GST::LIC1::6×His, full-length dynein light intermediate chain 1 (residues 1–523) (human, UniProt Q9Y6G9 1-523); experiment: pull-down
# [2] = target: B2; experiment: pull-down
Binder,binding result [1],binding result [2]
B1,binds,
B2,binds,
B3,,binds
B4,binds,
